Laboratory results: US20160194407A1 (AstraZeneca / MedImmune, published 2016)
Positions count from the first letter of the chain named.

Columns and labels:
[1] = biological target: T1, CD73 construct with chicken N- and C-terminal domain sequence and knocked-in human V144 and N185; experiment: SPR ProteOn, His-tagged CD73 variant on HTG chip
T1 construct: K180 is conserved between chicken and human; also called chicken CD73 replaced with V144 and N185; knock-in
T1 chain: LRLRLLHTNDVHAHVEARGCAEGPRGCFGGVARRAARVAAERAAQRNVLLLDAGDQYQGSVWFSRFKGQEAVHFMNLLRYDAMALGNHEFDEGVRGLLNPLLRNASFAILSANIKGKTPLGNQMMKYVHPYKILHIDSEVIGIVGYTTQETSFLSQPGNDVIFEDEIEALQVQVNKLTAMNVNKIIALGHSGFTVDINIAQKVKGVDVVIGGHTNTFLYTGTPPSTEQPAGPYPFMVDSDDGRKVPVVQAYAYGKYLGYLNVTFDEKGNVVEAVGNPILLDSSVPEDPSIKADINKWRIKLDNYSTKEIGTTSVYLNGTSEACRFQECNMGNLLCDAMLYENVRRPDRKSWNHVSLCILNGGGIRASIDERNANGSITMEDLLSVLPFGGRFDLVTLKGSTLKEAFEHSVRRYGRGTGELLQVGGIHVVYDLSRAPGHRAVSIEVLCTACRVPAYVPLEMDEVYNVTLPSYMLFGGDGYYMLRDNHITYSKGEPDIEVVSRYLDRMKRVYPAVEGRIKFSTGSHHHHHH
Protocol: CD73 crude cell supernatant protein samples were diluted to 3 μg/ml in PBS, 0.005% Tween-20, pH 7.4 (BioRad) and immobilized to ˜400 RU on a HTG tris-NTA sensor chip (BioRad) pre-activated with 10 mM NiSO₄, 10 mM MES, pH 6.0 (BioRad). An equivalently diluted crude cell supernatant sample from non-transfected cells was included as a reference channel control. […] Antibody binding was measured at a flow rate of 100 μL/min with a 3 min association phase and 20 min dissociation phase. The sensor chip surface was regenerated between each run by an 800 s injection of 300 mM EDTA, pH 8.5 (BioRad) at a flow rate of 30 μL/min. Binding kinetics were analyzed using the ProteOn data analysis software. Double referencing was performed and, unless noted otherwise, a 1:1 Langmuir binding model was utilized to fit the data. […] Where noted, these variants were fit with a heterogenous antigen (2:1) model.

CD73 chimera KO_Linker = biological target: T2, CD73 chimera KO_Linker (human; chicken (Gallus gallus)); experiment: SPR ProteOn, His-tagged CD73 variant on HTG chip
T2 construct: Human limits converted from mature numbering (+26); also called KO_292-310; linker region-swapped CD73
T2 chain: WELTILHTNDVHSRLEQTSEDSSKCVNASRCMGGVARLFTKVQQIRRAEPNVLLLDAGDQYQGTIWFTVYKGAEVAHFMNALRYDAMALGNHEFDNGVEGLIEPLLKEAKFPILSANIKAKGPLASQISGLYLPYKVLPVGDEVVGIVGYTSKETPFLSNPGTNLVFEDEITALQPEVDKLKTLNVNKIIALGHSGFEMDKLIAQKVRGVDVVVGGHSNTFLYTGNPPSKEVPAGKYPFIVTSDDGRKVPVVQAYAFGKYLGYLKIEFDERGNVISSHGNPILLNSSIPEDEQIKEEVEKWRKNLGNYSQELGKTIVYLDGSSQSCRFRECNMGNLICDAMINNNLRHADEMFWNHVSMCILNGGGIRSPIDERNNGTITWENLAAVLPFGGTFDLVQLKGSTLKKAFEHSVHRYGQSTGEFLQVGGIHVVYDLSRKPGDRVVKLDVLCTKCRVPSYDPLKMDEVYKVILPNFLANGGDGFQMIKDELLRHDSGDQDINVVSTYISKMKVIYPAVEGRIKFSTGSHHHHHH

human CD73 K180A = biological target: T3, human CD73 K180A (human, UniProt P21589 27-553, K180A); experiment: SPR ProteOn, His-tagged CD73 variant on HTG chip
T3 sequence: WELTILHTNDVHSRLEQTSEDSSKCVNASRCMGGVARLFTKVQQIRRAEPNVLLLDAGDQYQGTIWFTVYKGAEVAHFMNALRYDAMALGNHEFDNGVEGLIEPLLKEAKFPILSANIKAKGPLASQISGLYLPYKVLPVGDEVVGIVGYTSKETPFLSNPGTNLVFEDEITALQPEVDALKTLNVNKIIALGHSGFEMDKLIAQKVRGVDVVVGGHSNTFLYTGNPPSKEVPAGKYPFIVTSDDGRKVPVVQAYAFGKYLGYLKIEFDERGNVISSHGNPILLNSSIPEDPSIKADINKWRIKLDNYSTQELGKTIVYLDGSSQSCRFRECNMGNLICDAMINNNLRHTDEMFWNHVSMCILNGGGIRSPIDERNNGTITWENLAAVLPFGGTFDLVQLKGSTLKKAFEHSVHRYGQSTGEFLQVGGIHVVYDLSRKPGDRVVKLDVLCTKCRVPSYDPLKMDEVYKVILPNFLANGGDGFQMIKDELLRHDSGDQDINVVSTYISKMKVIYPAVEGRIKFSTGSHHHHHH

human CD73 V144K + K180A = biological target: T4, human CD73 V144K + K180A (human, UniProt P21589 27-553); experiment: SPR ProteOn, His-tagged CD73 variant on HTG chip
T4 chain: T3 sequence with V144K, T350A

cynomolgus CD73 on cells = biological target: T5, cynomolgus CD73 on cells (cynomolgus); experiment: flow cytometry on MK-1 cells, one-site fit of median fluorescence
T5 construct: whole, on cells; also called native CD73 on MK-1 cells (cynomolgus)
Protocol: All flow cytometry experiments were run at 4 C and reagents were prepared in PBS/1% FBS buffer. 10,000 cells were incubated with test antibody in 50 uL volume for 4 hours. Cells were washed twice and incubated in 50 uL goat anti-human IgGFc-AlexaFluor647 conjugate for 15 minutes. Cells were washed, resuspended in buffer supplemented with Dapi, and analyzed on a flow cytometer. Dead cells, identified by high Dapi staining, were excluded from the analysis. For the determination of KD values, a plot of the median fluorescence intensity as a function of test antibody concentration was fitted nonlinearly using a one site binding isotherm model.

B1: MEDI9447 (antibody, V domains shown)
VH: EVQLLESGGGLVQPGGSLRLSCAASGFTFSSYAYSWVRQAPGKGLEWVSAISGSGGRTYYADSVKGRFTISRDNSKNTLYLQMNSLRAEDTAVYYCARLGYGRVDEWGRGTLVTVSS
VL: QSVLTQPPSASGTPGQRVTISCSGSLSNIGRNPVNWYQQLPGTAPKLLIYLDNLRLSGVPDRFSGSKSGTSASLAISGLQSEDEADYYCATWDDSHPGWTFGGGTKLTVL
notes: also called clone 10.3 antibody; 73combo3
- Kd [1]: 79 pM
- kon (CD73 chimera KO_Linker): 5.57e+06 M⁻¹ s⁻¹
- koff (human CD73 K180A): 0.000154 s⁻¹
- kon (human CD73 K180A): 3.45e+06 M⁻¹ s⁻¹
- koff (human CD73 V144K + K180A): 0.00425 s⁻¹
- kon (human CD73 V144K + K180A): 1.58e+06 M⁻¹ s⁻¹
- Kd (cynomolgus CD73 on cells): 84 pM
